Experimental data published in paper PMC3335792, “M. tuberculosis Sliding β-Clamp Does Not Interact Directly with the NAD+ -Dependent DNA Ligase”.

Assays:
[1] = target: T1, Mtb beta-clamp, OregonGreen488-labeled (Mycobacterium tuberculosis, UniProt P9WNU1 1-402); assay: fluorescence intensity titration (OregonGreen-labeled protein); apparent Kd; no Mg2+; 20 mM Tris-Cl pH 7.5, 1 mM DTT, 0.2 mM EDTA, 40 mM NaCl, 22 C, 200 or 500 nM labeled clamp; ex 490 nm, em 517 nm; conditions: protein: recombinant, tags: C-terminal 6xHis, OregonGreen488 maleimide, chain copies: 2, label: none in fluorescence assay, 32P in EMSA
T1 sequence: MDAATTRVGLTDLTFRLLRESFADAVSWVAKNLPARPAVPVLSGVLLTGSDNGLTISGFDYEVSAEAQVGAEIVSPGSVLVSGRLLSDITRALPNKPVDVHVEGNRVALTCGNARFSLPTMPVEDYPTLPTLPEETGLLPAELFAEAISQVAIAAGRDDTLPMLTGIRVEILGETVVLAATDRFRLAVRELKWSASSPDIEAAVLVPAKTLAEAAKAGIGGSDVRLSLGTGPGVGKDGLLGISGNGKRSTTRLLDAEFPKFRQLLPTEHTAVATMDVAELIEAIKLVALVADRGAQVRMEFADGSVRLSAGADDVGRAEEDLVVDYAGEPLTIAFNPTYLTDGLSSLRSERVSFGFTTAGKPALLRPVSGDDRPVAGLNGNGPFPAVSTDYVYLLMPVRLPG

[2] = target: T1, Mtb beta-clamp, OregonGreen488-labeled; assay: fluorescence intensity titration (OregonGreen-labeled protein); apparent Kd; abstract gives 300 nM; no Mg2+; 20 mM Tris-Cl pH 7.5, 1 mM DTT, 0.2 mM EDTA, 40 mM NaCl, 22 C, 200 or 500 nM labeled clamp; ex 490 nm, em 517 nm; conditions: protein: recombinant; tags: C-terminal 6xHis; OregonGreen488 maleimide; chain copies: 2; label: none in fluorescence assay; 32P in EMSA

B1: nicked duplex (28-mer template + 18-mer + dA10) (dsDNA)
DNA 1: TTTTTTTTTTCCCTTGCTATACGATGGG
DNA 2: CCCATCGTATAGCAAGGG
DNA 3: AAAAAAAAAA
With B1 the Kd ([1]; nicked duplex, 18-mer and 10-mer annealed to 28-mer, blunt ends) was 0.53 µM.

B2: blunt duplex 18/18 (dsDNA)
DNA 1: CCCATCGTATAGCAAGGG
DNA 2: CCCTTGCTATACGATGGG
B2 was tested, and the Kd ([1]; blunt) was 0.557 µM.

B3: 18/28-mer primed template (mixed)
DNA 1: TTTTTTTTTTCCCTTGCTATACGATGGG
DNA 2: CCCATCGTATAGCAAGGG
B3 showed a Kd [2] of 0.326 µM.
